Experimental findings from PMC13507078, “The BRCT domain enhances DNA binding and catalytic efficiency of fungal PARPs” are described below.

The target in data set [1] is T1, Af-PARP1 S241Q (Aspergillus fumigatus, UniProt B0Y3N8 1-23+35-688, S252Q;internal_change). Description: EMSA; mutation did not restore binding; EMSA: 50 mM HEPES pH 8, 100 mM NaCl, 10% glycerol, 10 mM DTT, 45 min at 4 °C, 7% native PAGE 0.5x TBE; plasmid EMSA: 20 mM Tris-HCl pH 8, 30 mM NaCl, 1 mM EDTA, 1 mM DTT; CD: 20 mM HEPES pH 8, 100 mM NaCl, 0.5 mM TCEP, 2% glycerol. The following applies: protein: recombinant; tags: His; hairpin, blunt end. For orientation: Mobility shift assays separate free from complexed probe on a gel.

Data set [2] addresses Af-PARP1 K52/60A (Aspergillus fumigatus, UniProt B0Y3N8 1-23+35-688, K63A;K71A;internal_change). Description: EMSA; EMSA: 50 mM HEPES pH 8, 100 mM NaCl, 10% glycerol, 10 mM DTT, 45 min at 4 °C, 7% native PAGE 0.5x TBE; plasmid EMSA: 20 mM Tris-HCl pH 8, 30 mM NaCl, 1 mM EDTA, 1 mM DTT; CD: 20 mM HEPES pH 8, 100 mM NaCl, 0.5 mM TCEP, 2% glycerol. The following applies: protein: recombinant; tags: His; dumbbell of two hairpins, nick.

The target of data set [3] is Af-PARP1 K56A (Aspergillus fumigatus, UniProt B0Y3N8 1-23+35-688, K67A;internal_change). The description is as above. The conditions noted are these: protein: recombinant; tags: His; dumbbell of two hairpins, nick.
Data set [4] concerns the target Af-PARP1 Q22A (Aspergillus fumigatus, UniProt B0Y3N8 1-23+35-688, Q22A;internal_change). The description is as above. The conditions noted are these: protein: recombinant; tags: His; dumbbell of two hairpins, nick.
The target of data set [5] is Af-PARP1 E53A (Aspergillus fumigatus, UniProt B0Y3N8 1-23+35-688, E64A;internal_change). The data set is described as above. The conditions noted are these: protein: recombinant; tags: His; dumbbell of two hairpins, nick.
The target in data set [6] is Af-PARP1 K60A (Aspergillus fumigatus, UniProt B0Y3N8 1-23+35-688, K71A;internal_change). The data set is described as above. The following applies: protein: recombinant; tags: His; dumbbell of two hairpins, nick.
Data set [7] deals with Af-PARP1 K52A (Aspergillus fumigatus, UniProt B0Y3N8 1-23+35-688, K63A;internal_change). The data set is described as above. The following applies: protein: recombinant; tags: His; dumbbell of two hairpins, nick.
The target in data set [8] is Af-PARP1 S14A (Aspergillus fumigatus, UniProt B0Y3N8 1-23+35-688, S14A;internal_change). Described as above. The following applies: protein: recombinant; tags: His; dumbbell of two hairpins, nick.
The target of data set [9] is T1, Af-PARP1 S241Q. The data set is described as above. The following applies: protein: recombinant; tags: His; described as blunt duplex; printed strands not exactly complementary.

On to GGAAGTTCTTTTGAACTTCC (structured_DNA, 5'-phosphate) [DNA-5 (5'P blunt)], for which the binding result in data set [1] was “no binding”.

As for CGGTCGATCGTAAGATCGACCGGCGCTGGAGCTTGCTCCAGCGC (structured_DNA, 5'-phosphate) [DNA-1 (5'P nick)], the binding result in data set [2], in data set [3], in data set [4], in data set [5], in data set [6] and in data set [7] was “binds” throughout. Also, in [8], the binding result is “binds”.

B1: DNA-16/17 (5'P duplex) (dsDNA)
DNA 1: GACGACCCGGACACA
DNA 2: TGTGCTCCGGGTCGTC
modifications: 5'-phosphate on DNA-16
For B1, in data set [9], the binding result is recorded as “binds”.
